Measurements as given in paper PMC10197132.

What was measured:
[1] = molecular target: G3-SEAP (human-secreted embryonic alkaline phosphatase with an N-terminal Gly3 sequence) (human); experiment: SEC-MALS
G3-SEAP = G3-SEAP (human, UniProt P05187); experiment: fluorescence polarization

Question: With “G3-SEAP (human-secreted embryonic alkaline phosphatase with an N-terminal Gly3 sequence) (enzyme)” as the molecule, how does the stoichiometry N [1] read?
Answer: 2

B1: FAM-23DR DNA-RNA hybrid (DNA:RNA)
DNA: CGGTGTGGTCGCTGTAATCAGAG
RNA: CUCUGAUUACAGCGACCACACCG
Question: Does B1 bind (G3-SEAP)?
Answer: no binding
